Source: paper doi:10.1101/2025.03.03.641244 (bioRxiv, 2025)

Tests used:
Assay in all cases: MST
[1] = biological target: Sortilin extracellular domain (ECD) (M1-S756) C-terminally fused to 6His (UniProt Q99523)
[2] = biological target: Enhanced GFP with C-terminal (GGGGS)3GG linker and RQLL
[3] = biological target: T1, Sortilin extracellular domain (ECD) (M1-S756) C-terminally fused to 6His (UniProt Q99523 78-756)
T1 sequence: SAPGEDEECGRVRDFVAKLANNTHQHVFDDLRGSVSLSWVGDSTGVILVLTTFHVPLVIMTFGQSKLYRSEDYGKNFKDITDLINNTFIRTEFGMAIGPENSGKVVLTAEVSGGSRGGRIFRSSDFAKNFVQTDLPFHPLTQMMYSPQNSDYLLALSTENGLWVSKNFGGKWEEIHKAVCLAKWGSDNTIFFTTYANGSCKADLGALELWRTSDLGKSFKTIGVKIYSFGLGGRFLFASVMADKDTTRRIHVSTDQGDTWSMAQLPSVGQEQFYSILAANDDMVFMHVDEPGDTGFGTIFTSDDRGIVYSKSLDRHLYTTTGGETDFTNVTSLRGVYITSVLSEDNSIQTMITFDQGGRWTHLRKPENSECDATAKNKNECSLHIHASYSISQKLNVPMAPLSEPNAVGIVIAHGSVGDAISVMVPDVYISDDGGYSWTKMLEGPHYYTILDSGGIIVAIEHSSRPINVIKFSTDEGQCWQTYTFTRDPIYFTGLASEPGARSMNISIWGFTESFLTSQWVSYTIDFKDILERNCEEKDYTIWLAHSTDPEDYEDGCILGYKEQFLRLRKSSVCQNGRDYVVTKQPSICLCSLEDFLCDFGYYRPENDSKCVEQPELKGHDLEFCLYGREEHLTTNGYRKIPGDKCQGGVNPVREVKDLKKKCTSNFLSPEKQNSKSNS

Molecule: TNFa (V76-L233) with C-terminal (GGGGS)3GG linker and RQLL
- Kd [1]: 86.5 nM

Molecule: Sortilin extracellular domain (ECD) (M1-S756) C-terminally fused to 6His (from UniProt Q99523 78-756) (domain or fragment)
- Kd [2]: 74 nM

Molecule: TNFa (V76-L233) without RQLL (natural protein)
- Kd [1]: > 200000 nM

B1: progranulin N-terminally tagged with the HiBiT peptide (ligand)
chain: TRCPDGQFCPVACCLDPGGASYSCCRPLLDKWPTTLSRHLGGPCQVDAHCSAGHSCIFTVSGTSSCCPFPEAVACGDGHHCCPRGFHCSADGRSCFQRSGNNSVGAIQCPDSQFECPDFSTCCVMVDGSWGCCPMPQASCCEDRVHCCPHGAFCDLVHTRCITPTGTHPLAKKLPAQRTNRAVALSSSVMCPDARSRCPDGSTCCELPSGKYGCCPMPNATCCSDHLHCCPQDTVCDLIQSKCLSKENATTDLLTKLPAHTVGDVKCDMEVSCPDGYTCCRLQSGAWGCCPFTQAVCCEDHIHCCPAGFTCDTQKGTCEQGPHQVPWMEKAPAHLSLPDPQALKRDVPCDNVSSCPSSDTCCQLTSGEWGCCPIPEAVCCSDHQHCCPQGYTCVAEGQCQRGSEIVAGLEKMPARRASLSHPRDIGCDQHTSCPVGQTCCPSLGGSWACCQLPHAVCCEDRQHCCPAGYTCNVKARSCEKEVVSAQPATFLARSPHVGVKDVECGEGHFCHDNQTCCRDNRQGWACCPYRQGVCCADRRHCCPAGFRCAARGTKCLRREAPRWDAPLRDPALRQLL
- Kd [3]: 3.5 ± 1.6 nM
